# ± gives the half width of the 95% confidence interval.
# Test: folding stability dG unfold from chymotrypsin proteolysis; higher = more stable
# Outline: (§1)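 Unfolding free energy was derived, per protease or combined, by relating Bayesian-fitted K50 values from sequencing counts to a sequence-predicted unfolded-state K50 and a shared folded-state K50. The underlying digests exposed cysteine-free mini-proteins under 80 residues, in a PA-tagged cDNA display construct, to trypsin and chymotrypsin at 11 threefold-diluted concentrations and to a no-protease condition. A filter kept only designs with AlphaFold2 dimer inter-PAE above 15.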
row,Sequence,folding stability dG unfold [kcal/mol]
1,SAGGSAGGSMTIPILFPIPPGQPPGMEITFRFPGYKIEIEILEVDPENGWIAFMIELTDPGDDSAGGSAGGS [r12_1039_TrROS],4.36 ± 0.095
2,KIHILPPGEPAKDPNGKTYEFPNMRIHRNPKNGKPTIYIPMDPEARDQGNPEALQWLRELVEELNIDKVEPS [r1_438_TrROS],0.0516 ± 0.16
3,SAGGSAGGSPDNWITFIFISISYKWKITKWDPENGGWKIEIKDVSIEIEIIRLPADDADKLFKSAGGSAGGS [r12_723_TrROS],4.34 ± 0.062
4,SAGGSAGGSPKIKEVKYIPPTGKIEVLIELPNGKPIKVTFDPKIKVNPVFYNGKPIFYFTGNPSAGGSAGGS [r12_789_TrMRF],1.21 ± 0.073
5,SAGGTAEEIAETIAEKFSKKNNNPNVRITVEKEPDSLRIDITFPNNGHEIEIEFEDGGIRKIEWEPYSAGGS [r16_397_TrROS],-0.251 ± 0.85
6,SAGGSAGGSMYYVVVTRPGGRPEVIVVPTETLEEVEEVAARIAEALRELGIPEEELEIRVLPVSAGGSAGGS [r12_295_TrMRF],1.679 ± 0.016
7,SAGGSVSDIVNELKKKGIKVTSIEKTEDGTYVITTELPNGVKKEYKYSTSDPKNVAALKAAIPEELVSAGGS [r16_821_JUSTAS],1.19 ± 0.072
8,SAGGDWRPVEFTIKILIPKGMTADELIEEIKEIARNLGLTIKPISVEVYPVPNKYYVEINVEIWIPPNSAGG [r13_351_TrROS],4.54 ± 0.19
9,SAGGMKVYKTPDKITIELTHPETGEKAKGTYTPSTGKMTITYPNKLTVTISVDSNGNLTPVEKKPLLSAGGS [r16_127_JUSTAS],0.577 ± 0.1
10,SAGKRTIMIPFNVKPNQIRNIAKDIVEMHPGWKIKSIKVFNPNNGEPQELPLGDVPPNEPVWIKVEIEPSAG [r5_357_TrROS],2.21 ± 0.05
11,SAGGMITEEEILELEKRIREAAEAGDPETVEEELERAKEALEEYKKKGNKELLKKVEEIVKRAEELIASAGG [r13_137_JUSTAS],2.7 ± 0.14
12,SAGMNKIYRLNEPVKNITFSSSELENLFKDPNIDRIAVFHPDKPAIIPFPDGKISGEFPPNITIVLFGSAGG [r19_152_TrMRF],-0.0733 ± 0.5
13,SAGGSAGGSAMIGGGEDGNLVFLVTEDGKPLVLVAPPDEIKKILEELGIKDVVVVKPLPELSAGGSAGGSAG [r3_141_TrMRF],-0.0844 ± 0.13
14,SAGGSAGGSFVDPDGYKVIEFPIPMDDPGRIKEEVMDQFNLKDVKVEWEPTPGWYWVSIIVEPSAGGSAGGS [r12_929_TrROS],0.815 ± 0.16
15,SAGGSAGGSAGGSSGTSVSTEVSSSPVVTKTEYTKLDDGWSTTTTVVSTLPNALAPELTTSAGGSAGGSAGG [r7_845_JUSTAS],0.255 ± 0.024
16,SAGGSAGGSAGGKKTVKIEIEMPVEELLKKLKFPEGITSVRIIERDENGYLRIEIEVKLSAGGSAGGSAGGS [r10_352_TrROS_Hall],1.32 ± 0.078
17,SAGGSAMPEVKVEVEIIERDPENEDYVLVRIKVEVRFKTEDGEEVEVREERELLVFPSEEELKKALSAGGSA [r15_1019_TrROS_Hall],1.82 ± 0.048
18,SAGGDIKILSIQFMPPGWIMIVAEIPLENGEKWHISIMIRITPEARNHPPGQEYEFRIDINISIVPRSAGGS [r16_787_TrROS],4.91 ± 0.41
19,SAGGSAGGSETVTLELTLEDGRTLRIEFDPETQRLTVTFPDGSKQEIEVETLDDALAALLEALSAGGSAGGS [r12_866_TrROS_Hall],3.81 ± 0.072
20,SAGGSAERVLIEAESLEEAKAALEELGVTRVEEREVDGKRYLILVDLDDPEKIEVFSREELEKLLKSAGGSA [r15_11_TrROS_Hall],1.78 ± 0.093
21,SAMKLTVSSSSPEEAQAQAEALKAQLRAELAAAGHPGAEVPVEITVTAVPPPVPVDVADPTSDRWSPTPSAG [r14_475_JUSTAS],-0.694 ± 0.18

# Test: folding stability dG unfold (combined trypsin and chymotrypsin); higher = more stable
# Outline: as §1
row,Sequence,folding stability dG unfold [kcal/mol]
1,SAGMKVIKVKGEEELEKALREEAEKKGLSEEEMKEFIEEAKKRTKIEKEGDEYYVTIEPEGKPVPGNKLSAG [r5_717_JUSTAS],0.474 ± 0.37
2,SAGGMKIEGMTPEEVEALAKALAEAGYEVVSVTVTYDPETDTVTVTVVVRDKKTGEIKKVVTVTLPPSAGGS [r16_750_TrROS_Hall],2.99 ± 0.072
3,SAGGSDTLKKLFPGVKEIEIEVEPYWVPMPPEMAKDNPEAPGQTFPVPRVKITIKIELPRDPDGKLSAGGSA [r2_404_TrROS],0.772 ± 0.12
4,MTIEITIVAKTEEEAKEAAEELARKLAEELGLSEEELENLKIEVEKVEVTNEDGEKYYVVKIKIELPPEFKS [r1_81_TrROS_Hall],3.25 ± 0.4
5,SAGGPGWRTINIPVWFKPGDSLDEIEEKARELVDPIADRNGLDIEVNIEVERDPDGYYRFNVQITVPSAGGS [r16_279_TrROS],1.96 ± 0.13
6,SAGGSAGGSKKKVKVVKVEKLEDGSVRVLLYNEDGELVLEIEFPPGMTEEEVEELVKKLLEELSAGGSAGGS [r12_798_TrROS_Hall],2.69 ± 0.13
7,SAGGSAGGSAGGKVGPGTTVTIVEVEVVGSKINPLGLVTTDFVVKKVEVVEVEKGADLKSAGGSAGGSAGGS [r10_826_JUSTAS],0.0651 ± 0.12
8,SAGEMVVLRIRVKVPVTEVKFDKETGELTVEKKTVTREITLTVPADSPEARELAEKLRELGFEVEVVEASAG [r5_468_TrROS_Hall],3.43 ± 0.062
9,SAGGSAGGSGITIPAGSPEKVYELLSALEKLGFKPKKVSVSGNYVIVDFENGIPVNIEINPGKSAGGSAGGS [r20_93_TrMRF],2.38 ± 0.052
10,SAGGSAGGSAGGMFKTYDSLEDVKKNETGDGAKGKVFVVAPIPELENAVLVLVEIRPPDSAGGSAGGSAGGS [r10_126_TrMRF],0.231 ± 0.088

# Reference: the supplement of paper PMC12764529
